# Data published in patent US20220341931A1.
# Target: Influenza A [A/Hawaii/70/2019 (H1N1)pdm09-like virus] Hemagglutinin (HA), His-Tag (Native Antigen Co (Influenza A [A/Hawaii/70/2019 (H1N1)pdm09-like virus]))
substance,measurement,value
"SARS-CoV-2 (2019-nCoV) Nucleocapsid Antibody, Rabbit MAb (Sino Biological Cat: 40143-R019)",barcode sequence counts (FLU A),2000 counts
